Reference: patent US7098013B2, “Polypeptide having α-isomaltosyl-transferase activity” (Kabushiki Kaisha Hayashibara Seibutsu Kagaku Kenkyujo, priority 2000, dated 2006)

Key:
[1] = Optimum temperature of the enzyme activity; format: biochemical; conditions: incubated for 30 min, pH 6.0
Procedure: (§1) The activity of α-isomaltosyl-transferring enzyme was measured by the following assay: A substrate solution was prepared by dissolving panose in 100 mM acetate buffer (pH 6.0) to give a concentration of 2% (w/v). A reaction mixture was prepared by mixing 0.5 ml of the substrate solution and 0.5 ml of an enzyme solution, and incubated at 35° C. for 30 min. After stopping the reaction by boiling for 10 min, the amount of glucose formed in the reaction mixture was determined by the glucose oxidase-peroxidase method. One unit of α-isomaltosyl-transferring activity was defined as the amount of the enzyme that forms one μmole of glucose per minute under the above conditions.
A purified specimen of polypeptide having α-isomaltosyl-transferring activity, obtained by the method in Experiment 3-2, was acted on the substrate in 20 mM acetate buffer (pH6.0) at various temperatures for 30 min, according to the assay method of α-isomaltosyl-transferring enzyme disclosed in Experiment 1-1.

[2] = Optimum pH of the enzyme activity; format: biochemical; conditions: MacIlvaine buffer, 35° C., 30 min
Procedure: as §1
A purified specimen of polypeptide having α-isomaltosyl-transferring activity, obtained by the method in Experiment 3-2, was acted on the substrate in MacIlvaine buffer of various pHs at 35° C. for 30 min according to the assay method of α-isomaltosyl-transferring enzyme disclosed in Experiment 1-1.

[3] = Thermal stability of the polypeptide; format: physicochemical; conditions: 20 mM acetate buffer (pH 6.0), 60 min
Procedure: A purified specimen of polypeptide having α-isomaltosyl-transferring activity, obtained by the method in Experiment 3-2, was incubated in 20 mM acetate buffer (pH6.0) at various temperatures for 60 min according to the assay method of α-isomaltosyl-transferring enzyme disclosed in Experiment 1-1.

B1: polypeptide having α-isomaltosyl-transferring enzyme activity from Bacillus globisporus N75: purified α-isomaltosyl-transferring enzyme from Bacillus globisporus N75 (FERM BP-7591), contains the … (protein, listed as Bacillus globisporus)
chain: IDGVYHAPYGIDDLYEIQATERSPRDPVAGETVYIKITTWPIEPGQTAWVTWTKNGVAQPAVGAAYKYNSGNNTYWEANLGSFAKGDVISYTVRGNKDGANEKTAGPFTFTVTDWEYVSSIGSVTNNTNRVLLNAVPNTGTLSPKINISFTADDVFRVQLSPTGSGTLSTGLSNFTVTDSASTAWISTSKLKLKVDKNPFKLSVYKPDGTTLIARQYDSTANRNLAWLTNGSTVINKIEDHFYSPASEEFFGFGERYNNFRKRGTDVDTYVYNQYKNQNDRTYMAIPFMLNSSGYGIFVNSTYYSKFRLATERSDMYSFTADTGGSANSTLDYYFIYGNDLKGVVSNYANITGKPAALPKWAFGLWMSANEWDRQSKVATAINNANTNNIPATAVVLEQWSDENTFYMFNDAQYTAKPGGSTHSYTDYIFPAAGRWPNPKQMADNVHSNGMKLVLWQVPIQKWTAAPHLQKDNDESYMIAQNYAVGNGSGGQYRIPSGQWFENSLLLDFTNPSAKNWWMSKRAYLFDGVGIDGFKTDGGEMVWGRWNTFANGKKGDEMRNQYPNDYVKAYNEYARSKKSDAVSFSRSGTQGAQANQIFWSGDQESTFGAFQQAVQAGLTAGLSGVPYWSWDLAGFTGAYPSAELYKRATAMSAFAPIMQFHSEANGSSGINEERSPWNAQARTGDNTIISHFAKYTNTRMNLLPYIYSEAKAASDTGVPMMRAMALEYPSDTQTYGLTQQYMFGGSLLVAPVLNQGETNKNIYLPQGDWIDFWFGAQRPGGRTISYYAGVDDLPVFVKSGSILPMNLNGQYQVGGTIGNSLTAYNNLTFRIYPLGTTTYSWNDDIGGSVKTITSTEQYGLNKETVTLPAINSAKTLQVFTTKPSSVTLGGTALTAHSTLSALIGASSGWYYDTVQKLAYVKLGASSSAQTVVLDGVNKVEYEAEFGTLTGVTTNTNHAGYMGTGFVDGFDAAGDAVTFDVSVKAAGTYALKVRYASAGGNASRAIYVNNAKVTDLALPATANWDTWGTATVNVALNAGYNSIKVSYDNTNTLGINLDNIAIVEH
- optimum temperature [1]: about 50 °C
- optimum pH [2]: about 6.0
- thermal stability [3]: up to 45 °C
